From patent US20030088075A1 (Kyowa Kirin, published 2003)

What was measured:
[1] = target: T1, soluble human VEGF receptor KDR 7N (human, UniProt P35968 20-757); assay: ELISA, antigen coated at 4 µg/ml
T1 construct: range 20-757; Purity 70 to 80%; not shown: two amino acid residues derived from a linker
Protocol: First, the reactivity of anti-human VEGF receptor Fit-i mouse monoclonal antibodies KM1732 and KM1750 and anti-human VEGF receptor Flt-1 human chimeric antibodies KM2532 and KM2550 was compared using an immunoassay method. Each of Flt-1 7N, Flt-1 3N, Flt-1 2N, Flt-1 7N.K2 and KDR 7N diluted to 4 μg/ml with PBS was dispensed in 50 μl portions into wells of a 96 well plate for EIA (manufactured by Greiner) and allowed to stand overnight at 4° C. for its adsorption. After washing the plate with PBS, 100 μl of 1% BSA-PBS was added to each well, and the remaining active groups was blocked by carrying out the reaction at room temperature for 1 hour. After discarding 1% BSA-PBS, each of the purified anti-human VEGF receptor Flt-1 mouse monoclonal antibodies KM1732 and KM1750 or purified anti-human VEGF receptor Flt-1 human chimeric antibodies KM2532 and KM2550, having a concentration of from 0.1 μg/ml, was dispensed in 50 μl portions into the resulting wells to carry out the reaction at room temperature for 1 hour.

[2] = target: T2, soluble human VEGF receptor Flt-1 7N (human, UniProt P17948 27-750); assay: purified antibody; inhibition of 125I-VEGF binding to coated Flt-1 7N
T2 construct: range 1-750; Secreted from baculovirus-infected High Five insect cells and purified on heparin-Sepharose; also called Flt 7N; soluble human Flt-1 7N
T2 sequence (P17948 27-750 limits assumed, form in doubt): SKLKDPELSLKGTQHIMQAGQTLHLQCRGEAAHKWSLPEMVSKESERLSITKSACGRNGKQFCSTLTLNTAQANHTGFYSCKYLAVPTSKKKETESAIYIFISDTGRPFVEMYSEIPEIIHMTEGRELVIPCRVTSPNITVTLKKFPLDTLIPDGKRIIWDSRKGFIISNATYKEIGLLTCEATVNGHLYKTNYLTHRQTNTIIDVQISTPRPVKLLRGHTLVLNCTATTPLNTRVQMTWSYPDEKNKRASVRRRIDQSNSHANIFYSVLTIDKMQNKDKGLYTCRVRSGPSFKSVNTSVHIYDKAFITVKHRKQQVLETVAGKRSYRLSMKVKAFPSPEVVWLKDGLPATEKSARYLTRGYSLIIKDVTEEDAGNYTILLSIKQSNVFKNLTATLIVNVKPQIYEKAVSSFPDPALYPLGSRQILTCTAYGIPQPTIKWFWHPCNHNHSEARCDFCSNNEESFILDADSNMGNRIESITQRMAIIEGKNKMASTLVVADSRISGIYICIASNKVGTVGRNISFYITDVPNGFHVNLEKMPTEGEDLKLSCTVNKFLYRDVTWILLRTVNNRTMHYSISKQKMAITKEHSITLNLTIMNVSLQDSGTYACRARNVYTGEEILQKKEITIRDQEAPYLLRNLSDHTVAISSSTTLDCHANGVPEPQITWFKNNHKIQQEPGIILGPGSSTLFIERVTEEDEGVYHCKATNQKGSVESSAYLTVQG
Protocol: (§1) Methanol was dispensed in 100 μl portions into wells of a 96 well MultiScreen-IP Plate (manufactured by Millipore) to give hydrophilic nature to the PVDF membrane on the bottom of the plate. After washing with water, the soluble human VEGF receptor Flt-1 7N diluted with PBS to a concentration of 1.6 μg/ml was dispensed in 50 μl/well portions and then allowed to stand overnight at 4° C. for its adsorption. After washing, PBS containing 1% bovine serum albumin (BSA) is dispensed in 50 μl/well portions and the reaction was carried out at room temperature for 1 hour to block the remained active groups. After washing with PBS, each hybridoma culture supernatant or a purified monoclonal antibody diluted with 1% BSA-PBS containing 0.5 M NaCl (0.01 to 7.29 μg/ml) was dispensed in 50 μl/well portions and then 3 ng/ml of ¹²⁵I-labeled human VEGF (manufactured by Amersham) was dispensed in 50 μl/well portions, subsequently carrying out the reaction at room temperature for 1.5 hours. After washing with 0 05% Tween-PBS, the wells were dried at 50° C., and Microscinti-0 (manufactured by Packard) was dispensed in 30 μl/well portions to measure the radioactivity of the ¹²⁵I-labeled human VEGF linked to each well using Top Count (manufactured by Packard).

[3] = target: T3, human VEGF receptor Flt-1 expressed on cells (human, UniProt P17948 27-1338); assay: purified antibody; inhibition of 125I-VEGF binding to NIH3T3-Flt-1 cells
T3 construct: whole, on cells; also called NIH3T3-Flt-1; human VEGF receptor Flt-1 expression cells
T3 sequence (P17948 27-1338): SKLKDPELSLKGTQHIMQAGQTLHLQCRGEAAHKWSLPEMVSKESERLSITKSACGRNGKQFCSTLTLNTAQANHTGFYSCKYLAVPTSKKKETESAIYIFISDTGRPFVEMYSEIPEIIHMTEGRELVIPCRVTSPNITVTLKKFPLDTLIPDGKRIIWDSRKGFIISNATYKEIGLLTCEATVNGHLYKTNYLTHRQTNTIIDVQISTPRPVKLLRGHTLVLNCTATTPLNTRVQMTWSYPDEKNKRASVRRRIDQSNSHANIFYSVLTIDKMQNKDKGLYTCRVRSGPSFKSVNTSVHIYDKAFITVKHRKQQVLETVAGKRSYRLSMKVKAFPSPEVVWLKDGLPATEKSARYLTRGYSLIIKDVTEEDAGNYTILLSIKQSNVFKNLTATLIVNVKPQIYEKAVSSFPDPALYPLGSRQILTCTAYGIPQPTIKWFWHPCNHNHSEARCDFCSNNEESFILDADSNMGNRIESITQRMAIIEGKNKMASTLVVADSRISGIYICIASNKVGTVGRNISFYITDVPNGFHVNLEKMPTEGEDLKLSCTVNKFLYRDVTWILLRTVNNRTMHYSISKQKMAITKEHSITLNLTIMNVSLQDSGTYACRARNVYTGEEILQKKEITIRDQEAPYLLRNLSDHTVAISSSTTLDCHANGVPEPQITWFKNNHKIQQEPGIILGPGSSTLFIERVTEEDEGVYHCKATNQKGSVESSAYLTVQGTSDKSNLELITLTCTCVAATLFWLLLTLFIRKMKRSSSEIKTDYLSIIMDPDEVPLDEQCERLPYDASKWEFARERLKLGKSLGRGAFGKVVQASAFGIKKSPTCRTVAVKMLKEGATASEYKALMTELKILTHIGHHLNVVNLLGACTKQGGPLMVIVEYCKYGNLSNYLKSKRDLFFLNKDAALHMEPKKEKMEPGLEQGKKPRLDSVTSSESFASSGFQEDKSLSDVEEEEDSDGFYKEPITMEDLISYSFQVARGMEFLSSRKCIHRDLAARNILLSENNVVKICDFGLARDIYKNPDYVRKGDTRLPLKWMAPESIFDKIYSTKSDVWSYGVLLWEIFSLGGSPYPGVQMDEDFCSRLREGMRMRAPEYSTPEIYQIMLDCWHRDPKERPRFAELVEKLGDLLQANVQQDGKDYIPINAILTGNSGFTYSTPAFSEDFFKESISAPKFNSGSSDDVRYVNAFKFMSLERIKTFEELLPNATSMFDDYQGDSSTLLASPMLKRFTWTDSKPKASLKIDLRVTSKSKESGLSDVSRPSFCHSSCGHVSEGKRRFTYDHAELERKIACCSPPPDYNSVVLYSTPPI
Protocol: PBS containing 1% bovine serum albumin (BSA) was dispensed in 100 μl portions into wells of a 96 well MultiScreen-HV Plate (manufactured by Millipore), the reaction was carried out at room temperature for 1 hour to block the active groups in the wells and then NIH3T3-Flt-1 cells suspended in 1% BSA-PBS containing 0.05% NaN₃ were dispensed in 5×10⁴ cells/well portions. After washing with 1% BSA-PBS, a purified monoclonal antibody (0.01 to 7.29 μg/ml) was dispensed in 50 μl/well portions and then 3 ng/ml of ¹²⁵I-labeled human VEGF (manufactured by Amersham) was dispensed in 50 μl/well portions and the reaction was carried out under cooling for 2 hours. After washing with PBS, the wells were dried at 50° C., and Microscinti-0 (manufactured by Packard) was dispensed in 30 μl/well portions to measure the radioactivity of the ¹²⁵I-labeled human VEGF linked to each well using Top Count (manufactured by Packard).

[4] = target: T2, soluble human VEGF receptor Flt-1 7N; assay: hybridoma culture supernatant; inhibition of 125I-VEGF (3 ng/ml) binding to coated Flt-1 7N
Protocol: as §1

[5] = target: T1, soluble human VEGF receptor KDR 7N; assay: enzyme immunoassay, antigen coated at 10 µg/ml
Description: Next, in order to examine binding specificity of anti-human VEGF receptor Flt-1 human CDR-grafted antibodies KM8550, KM8551, KM8552, KM8553, KM8554 and KM8555 and anti-human VEGF receptor Flt-1 human chimeric antibody KM2550, their reactivity for five soluble human VEGF receptor derivative proteins Flt-1 7N, Flt-1 3N, Flt-1 2N (WO 98/22616), Flt-1 7N.K2 [2(6-5) of Example 2] and KDR 7N [2(6-5) of Example 2] was examined using an enzyme immunoassay. Concentration of each soluble human VEGF receptor derivative protein to be adsorbed on a 96 well plate for EIA was fixed to 10 μg/ml (3-fold dilution), and the antibody concentration was fixed to 5 μg/ml.

T1 sequence (P35968 20-757): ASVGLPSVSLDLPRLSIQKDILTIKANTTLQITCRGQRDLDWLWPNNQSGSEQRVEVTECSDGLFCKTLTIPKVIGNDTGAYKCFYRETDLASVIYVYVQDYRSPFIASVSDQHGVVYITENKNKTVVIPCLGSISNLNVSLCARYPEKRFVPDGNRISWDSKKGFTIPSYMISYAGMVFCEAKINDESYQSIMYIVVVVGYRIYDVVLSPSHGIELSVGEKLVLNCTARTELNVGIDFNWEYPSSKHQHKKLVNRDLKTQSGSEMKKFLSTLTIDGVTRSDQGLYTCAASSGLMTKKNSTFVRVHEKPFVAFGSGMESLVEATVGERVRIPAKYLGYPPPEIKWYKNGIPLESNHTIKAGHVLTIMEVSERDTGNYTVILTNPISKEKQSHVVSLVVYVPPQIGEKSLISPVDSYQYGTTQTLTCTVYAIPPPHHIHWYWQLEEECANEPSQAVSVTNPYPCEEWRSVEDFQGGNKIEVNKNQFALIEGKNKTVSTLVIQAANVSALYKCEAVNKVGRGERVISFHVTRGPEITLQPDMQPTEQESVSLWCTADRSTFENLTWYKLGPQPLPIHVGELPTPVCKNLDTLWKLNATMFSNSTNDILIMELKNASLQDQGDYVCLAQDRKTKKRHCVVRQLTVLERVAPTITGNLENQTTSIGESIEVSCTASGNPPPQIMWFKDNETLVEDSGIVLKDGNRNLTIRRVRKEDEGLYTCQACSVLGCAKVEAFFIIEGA

Row | Binder | binding result [1] | binding result [5] | also measured
1 | anti-human VEGF receptor Flt-1 mouse monoclonal antibody KM1750 (antibody, mouse IgG2b, V domains shown, mouse IgG2b; hybridoma FERM BP-5700; Used labeled with biotin on HUVEC; also called biotinated KM1750) VH: QAFLQQSGAELVRPGASVKMSCKASGYTFINYNMHWVKQTPRQGLEWIGAIFPGNGFTSYNQKFKGKATLTVDKSSSTVYMQLRSLTSEDSAVYFCARDGDYYFDYWGQGTTLTVSS VL: QIVLTQSPAIMSASLGEEITLTCSASSSVSYMHWYQQKSGTSPKLLIYRTSNLASGVPFRFSGSGSGTFYSLTISSVEAEDAADYYCHQWSMYTFGGGTKLEIK | no binding (tested: 0.1 µg/ml antibody) |  | IC50 [2]: 2 µg/mL; IC50 [3]: 0.041 µg/mL; inhibition ratio [4]: 66.3%
2 | anti-human VEGF receptor Flt-1 human chimeric antibody KM2550 (antibody, V domains shown, V regions of KM1750 joined to the human antibody C regions of vector pKANTEX93; IgG type; also called p42550 [sic]) VH: QAFLQQSGAELVRPGASVKMSCKASGYTFINYNMHWVKQTPRQGLEWIGAIFPGNGFTSYNQKFKGKATLTVDKSSSTVYMQLRSLTSEDSAVYFCARDGDYYFDYWGQGTTLTVSS VL: QIVLTQSPAIMSASLGEEITLTCSASSSVSYMHWYQQKSGTSPKLLIYRTSNLASGVPFRFSGSGSGTFYSLTISSVEAEDAADYYCHQWSMYTFGGGTKLEIK | no binding (tested: 0.1 µg/ml antibody) |  | 
3 | anti-human VEGF receptor Flt-1 human CDR-grafted antibody KM8550 (antibody, V domains shown, also called pKANTEX1750HV0LV0(I)) VH: QVQLVQSGAEVKKPGASVKVSCKASGYTFINYNMHWVRQAPGQGLEWMGAIFPGNGFTSYNQKFKGRVTITVDKSTSTAYMELSSLRSEDTAVYYCARDGDYYFDYWGQGTLVTVSS VL: DIQMTQSPSSLSASVGDRVTITCSASSSVSYMHWYQQKPGKAPKLLIYRTSNLASGVPSRFSGSGSGTDFTLTISSLQPEDFATYYCHQWSMYTFGQGTKVEIK |  | no binding (tested: 5 µg/ml antibody) | 
4 | anti-human VEGF receptor Flt-1 human CDR-grafted antibody KM8551 (antibody, V domains shown, also called pKANTEX1750HV0LV0(IV)) VH: QVQLVQSGAEVKKPGASVKVSCKASGYTFINYNMHWVRQAPGQGLEWMGAIFPGNGFTSYNQKFKGRVTITVDKSTSTAYMELSSLRSEDTAVYYCARDGDYYFDYWGQGTLVTVSS VL: DIVMTQSPDSLAVSLGERATINCSASSSVSYMHWYQQKPGQPPKLLIYRTSNLASGVPDRFSGSGSGTDFTLTISSLQAEDVAVYYCHQWSMYTFGQGTKVEIK |  | no binding (tested: 5 µg/ml antibody) | 
5 | anti-human VEGF receptor Flt-1 human CDR-grafted antibody KM8552 (antibody, V domains shown, also called pKANTEX1750HV3LV0(I)) VH: QVQLVQSGAEVKKPGASVKVSCKASGYTFINYNMHWVRQAPGQGLEWMGAIFPGNGFTSYNQKFKGRVTITVDKSTSTAYMQLRSLRSEDTAVYFCARDGDYYFDYWGQGTLVTVSS VL: DIQMTQSPSSLSASVGDRVTITCSASSSVSYMHWYQQKPGKAPKLLIYRTSNLASGVPSRFSGSGSGTDFTLTISSLQPEDFATYYCHQWSMYTFGQGTKVEIK |  | no binding (tested: 5 µg/ml antibody) | 
6 | anti-human VEGF receptor Flt-1 human CDR-grafted antibody KM8554 (antibody, V domains shown, also called pKANTEX1750HV0LV4) VH: QVQLVQSGAEVKKPGASVKVSCKASGYTFINYNMHWVRQAPGQGLEWMGAIFPGNGFTSYNQKFKGRVTITVDKSTSTAYMELSSLRSEDTAVYYCARDGDYYFDYWGQGTLVTVSS VL: DIQMTQSPSSLSASVGEEVTITCSASSSVSYMHWYQQKPGKAPKLLIYRTSNLASGVPSRFSGSGSGTFYTLTISSLQPEDFATYYCHQWSMYTFGQGTKVEIK |  | no binding (tested: 5 µg/ml antibody) | 
7 | anti-human VEGF receptor Flt-1 human CDR-grafted antibody KM8553 (antibody, V domains shown, also called pKANTEX1750HV3LV0(IV)) VH: QVQLVQSGAEVKKPGASVKVSCKASGYTFINYNMHWVRQAPGQGLEWMGAIFPGNGFTSYNQKFKGRVTITVDKSTSTAYMQLRSLRSEDTAVYFCARDGDYYFDYWGQGTLVTVSS VL: DIVMTQSPDSLAVSLGERATINCSASSSVSYMHWYQQKPGQPPKLLIYRTSNLASGVPDRFSGSGSGTDFTLTISSLQAEDVAVYYCHQWSMYTFGQGTKVEIK |  | no binding (tested: 5 µg/ml antibody) | 
8 | anti-human VEGF receptor Flt-1 human CDR-grafted antibody KM8555 (antibody, V domains shown, also called pKANTEX1750HV3LV4) VH: QVQLVQSGAEVKKPGASVKVSCKASGYTFINYNMHWVRQAPGQGLEWMGAIFPGNGFTSYNQKFKGRVTITVDKSTSTAYMQLRSLRSEDTAVYFCARDGDYYFDYWGQGTLVTVSS VL: DIQMTQSPSSLSASVGEEVTITCSASSSVSYMHWYQQKPGKAPKLLIYRTSNLASGVPSRFSGSGSGTFYTLTISSLQPEDFATYYCHQWSMYTFGQGTKVEIK |  | no binding (tested: 5 µg/ml antibody) | 
9 | anti-human VEGF receptor Flt-1 mouse monoclonal antibody KM1732 (antibody, mouse IgG1, V domains shown, mouse IgG1; hybridoma FERM BP-5698) VH: QGQMQQSGAELVKPGASVKLSCKPSGFTFSSNYISWLKQKPGQSLEWIAWIYAGTGDASYNQKFTAKAHVTVDTSSSTAYMQLSSLTTEDSAIYYCARHGGDGYWFAYWGQGTLVTVSA VL: QLVLTQSPAIMSASQGEKVTMTCSASSSVSYMHWYQQKSGTSPKRWIYDTSKLPSGVPARFSGSGSGTSYSLTISSMEAEDAATYYCQQWSSNPPTFGAGTKLELK | no binding (tested: 0.1 µg/ml antibody) |  | IC50 [2]: 1.1 µg/mL; IC50 [3]: 0.05 µg/mL; inhibition ratio [4]: 83.1%
10 | anti-human VEGF receptor Flt-1 human chimeric antibody KM2532 (antibody, V domains shown, V regions of KM1732 joined to the human antibody C regions of vector pKANTEX93 (WO 97/10354); IgG type of about 150 kDa; Expressed in YB2/0 cells; also called p42532 [sic]) VH: QGQMQQSGAELVKPGASVKLSCKPSGFTFSSNYISWLKQKPGQSLEWIAWIYAGTGDASYNQKFTAKAHVTVDTSSSTAYMQLSSLTTEDSAIYYCARHGGDGYWFAYWGQGTLVTVSA VL: QLVLTQSPAIMSASQGEKVTMTCSASSSVSYMHWYQQKSGTSPKRWIYDTSKLPSGVPARFSGSGSGTSYSLTISSMEAEDAATYYCQQWSSNPPTFGAGTKLELK | no binding (tested: 0.1 µg/ml antibody) |  | 
